Values belong to the binder of their own block, whether it stands above or below them.
How the values were obtained:
[1] = molecular target: the molecule itself; assay: crystal structure, subunit to subunit in the homotrimer
Method: Crystals suitable for structure determination were obtained within weeks by means of in situ proteolysis with trypsin. […] The structure presented herein was derived from crystals of seleno-methionylated protein, obtained using the sitting-drop method at 293 K and 277 K, in various concentrations ranging between 0.3-0.7 mM. A single crystal belonging to space group C2 (a=132.05 Å, b=39.33 Å, c=114.76 Å, β=99.6°) was grown from 0.1 M Bis-Tris pH 6.5 and 20% (w/v) PEG MME 5K. The crystal was soaked in 30% (w/v) PEG 400, flash-frozen in liquid nitrogen and used for data collection.
Data to 2.1 Å were collected at the European Synchrotron Radiation Facility, France, using an ADSC Q315 detector on the ID23eh1 beam line. All data were processed in MOSFLM12 and scaled in SCALA13. Data are essentially 100% complete to 2.3 Å Bragg spacing, then drop off rapidly and are only ˜60% complete in the outer resolution shell to 2.1 Å.

Aβ(M1-40) [2] = molecular target: T1, Aβ(M1-40) (human); assay: estimate from peak shapes in gel filtration (intermediate exchange on the gel filtration time scale)
T1 construct: Expressed in E. coli from a synthetic gene, and the monomer was isolated by gel filtration; also called Aβ40; human Aβ1-40 peptide
Method: Samples were injected from a 1 mL loop and chromatograms recorded by monitoring the absorbance at 280 nm. To monitor protein interactions, mixtures of Aβ and BRICHOS domains were injected directly after mixing or after 2 or 20 hours incubation at 37° C. in 20 mM Na-phosphate, 200 μM EDTA, 0.02% NaN₃ at pH 7.4 or pH 8.0. Fractions (0.3-0.7 ml) were collected during the chromatogram, lyophilized and analyzed by SDS PAGE in a 10-20% gradient gel.
The interaction between the BRICHOS proteins and Aβ was studied using gel filtration. Samples of 8 μM Aβ40 and 0.8 μM proSP-C BRICHOS, or 8 μM Aβ40 and 0.8 μM Bri2 BRICHOS, were incubated for 20 hours at 37° C., followed by gel filtration on a Superdex75 column, and SDS PAGE analysis of collected fractions.
The 20 h time point was chosen for investigating potential interactions between the BRICHOS protein and Aβ, because at this time point Aβ alone would have fibrillated and reached the equilibrium plateau, whereas samples containing 0.1 molar equivalent of proSP-C or Bri2 BRICHOS are still in the lag phase (c.f. FIG. 9). The data in FIG. 11 show clearly that at this time point almost all of Aβ40 is monomeric, while a minor fraction elutes together with proSP-C BRICHOS in fractions 2-6. Similar results are observed for 8 μM Aβ40 and 0.8 μM Bri2 BRICHOS (FIG. 12B). […]

Aβ(M1-42) = Aβ(M1-42) (human); assay: cell-based or functional assay
Aβ(M1-40) [3] = molecular target: T1, Aβ(M1-40); assay: cell-based or functional assay
KKVVVVVKK = molecular target: T2, KKVVVVVKK; assay: HDX-MS, 30 µM CTC and 40 µM peptide
T2 construct: Substrate peptide; also called V5; KKV5KK
T2 peptide: KKVVVVVKK
Method: (§1) Deuterated buffers were prepared by three rounds of freeze-drying of the 1 M stock Tris buffer, pH 8, and reconstitution in 99.9% D₂O (Cambridge Isotopes, Andover, Mass.) to a final Tris concentration of 20 mM. To start the incubation at 22° C., CTC (CTproSP-C) stock solution with a concentration of 0.9 mM was diluted in deuterated Tris buffer to a final deuterium content of 92.5%. For CTC/peptide and proSP-C BRICHOS/peptide interaction studies, KKV₇KK, KKV₅KK, or KKA₇KK were pre-incubated with either Tris buffer or proteins, for 10 min at 22° C., and subsequently diluted in deuterated Tris buffer. Final concentrations were 30 μM CTC or proSP-C BRICHOS and 40 μM peptide. The deuterium content was 92.5%. Aliquots of 20 μl were collected in triplicates from three separate incubations after 1, 5, 10, 30, and 60 min. Fully deuterated protein was prepared by freeze-drying a sample of CTC, followed by resuspension in 99.9% D₂O and incubation for 4 h at 50° C. Deuterium exchange was quenched by transferring aliquots to pre-chilled Eppendorf tubes containing 0.5 μL 5% trifluoroacetic acid (TFA) (Merck, Darmstadt, Germany), vortexing, and freezing in liquid nitrogen. Samples were kept in liquid nitrogen until analyzed.
(§2) Aliquots of deuterated CTC were thawed and injected into an HPLC system using a pre-chilled Hamilton syringe. The system was submersed in an ice bath during analysis. […]

KKVVVVVVVKK = molecular target: T3, KKVVVVVVVKK; assay: HDX-MS, 30 µM CTC and 40 µM peptide
T3 construct: Substrate peptide; also called V7; KKV7KK
T3 peptide: KKVVVVVVVKK
Method: as §1, §2

KKAAAAAAAKK = molecular target: T4, KKAAAAAAAKK; assay: HDX-MS
T4 construct: Non-substrate peptide; also called A7; KKA7KK
T4 peptide: KKAAAAAAAKK
Method: as §1, §2

T1 sequence (peptide, as listed by the source): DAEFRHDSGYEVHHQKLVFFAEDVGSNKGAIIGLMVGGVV
Chain of Aβ(M1-42) (human) (peptide, as listed by the source): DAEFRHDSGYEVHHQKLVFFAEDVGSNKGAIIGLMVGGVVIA

B1: crystallised proSP-C BRICHOS trimer (seleno-methionylated CTC after in situ proteolysis with trypsin, residues 82-160 and 168-197 of proSP-C) (other)
chain 1: LALSEHLVTTATFSIGSTGLVVYDYQQLLIAYKPAPGTCCYIMKIAPESIPSLEALNRKVHNFQMECSLQAKPAVPTSK
chain 2: DAGSAPSGGDPAFLGMAVNTLCGEVPLYYI
modifications: seleno-methionylated protein; seleno-methionylated protein; disulfide bridge Cys121-Cys189 to the second chain
notes: There are two trimers per asymmetric unit, and data extend to 2.1 Å; Residues about 149-180 are not modelled; also called crystallized protein
binding result [1]: binds

koff (Aβ(M1-40) [2]): 0.001 to 0.01 s⁻¹ | ten-fold increase in lag time of Aβ42 aggregation (ThT fluorescence) (Aβ(M1-42)): ~0.6 molar equivalents | 10-fold increase in lag time of Aβ40 aggregation (ThT fluorescence) (Aβ(M1-40) [3]): ~0.01 equivalents | molar ratio above which the lag time of Aβ40 aggregation exceeds one week (Aβ(M1-40) [3]): 0.025 molar ratio
B2: Bri2 BRICHOS (recombinant human Bri2 BRICHOS construct as described in Peng et al. 2010) (other)
chain: GIKYIKDDVILNEPSADAPAALYQTIEENIKIFEEEEVEFISVPVPEFADSDPANIVHDFNKKLTAYLDLNLDKCYVIPLNTSIVMPPRNLLELLINIKAGTYLPQSYLIHEHMVITDRIENIDHLGFFIYRLCHDKETYKLQRRET
notes: also called Bri2 BRICHOS domain; BRICHOS protein

koff (Aβ(M1-40) [2]): 0.001 to 0.01 s⁻¹ | ten-fold increase in lag time of Aβ42 aggregation (ThT fluorescence) (Aβ(M1-42)): ~0.6 molar equivalents | 10-fold increase in lag time of Aβ40 aggregation (ThT fluorescence) (Aβ(M1-40) [3]): ~0.03 equivalents | molar ratio above which the lag time of Aβ40 aggregation exceeds one week (Aβ(M1-40) [3]): 0.06 molar ratio | ratio above which Aβ40 aggregation does not occur within one week (Aβ(M1-40) [3]): 10 Aβ40 molecules per 1 proSP-C BRICHOS
B3: proSP-C BRICHOS (recombinant human, His59 to Ile197 of proSP-C, Examples 4-8) (other)
chain: HMSQKHTEMVLEMSIGAPEAQQRLALSEHLVTTATFSIGSTGLVVYDYQQLLIAYKPAPGTCCYIMKIAPESIPSLEALNRKVHNFQMECSLQAKPAVPTSKLGQAEGRDAGSAPSGGDPAFLGMAVNTLCGEVPLYYI
notes: Expressed in E. coli, with the thioredoxin and His6-tag removed by thrombin; Gel filtration indicates a trimer at 0 h and monomers eluting with Aβ after 20 h; also called recombinant human proSP-C BRICHOS; BRICHOS protein

binding result (KKVVVVVKK): binds | binding result (KKVVVVVVVKK): binds
B4: CTproSP-C, the C-terminal domain of lung surfactant protein C precursor (residues 59-197 of human proSP-C) (other)
chain: B3 chain
notes: also called CTC; recombinant CTC
binding result (KKAAAAAAAKK): no binding (tested: 30 µM CTC and 40 µM peptide)

Source: patent US20140030274A1 (ALPHABETA, published 2014)
